The test deals with Lucilia sericata larval excretions/secretions (ES), Batch B: proteinase activities within ES. In words: cell-based or functional assay.

Consider one substance from patent publication US20110280858A1.

“soybean trypsin inhibitor (STI) immobilized on cross-linked 4% beaded agarose (from UniProt P01070 25-205)” showed a residual activity of STI-treated ES against H-Leu-AMC without further inhibitor (FIG. 10A), compared with untreated ES (percent of untreated ES) of 25.7; a residual activity of STI-treated ES against H-Leu-AMC, percentage of untreated ES (percent of untreated ES) of 28.4; a residual activity of STI-treated ES against Tosyl-Gly-Pro-Arg-AMC-HCl, percentage of untreated ES (percent of untreated ES) of 0.5; a residual activity of STI-treated ES against Z-Phe-Arg-AMC-HCl, percentage of untreated ES (percent of untreated ES) of 1.8.
